The DeepSol protein solubility set

Assay: soluble on expression in E. coli; label from the status in PepcDB or PDB records

**Q.** For “MIRWFRNFGALFKKPRGAGLMKNEQTHNLQRVVQNDITCPEEQRSTGGKGGGGGSHGGHGGSHGGSHGGHGSHGGSYGGHSGHGRSFSTSSGSSGYRGLSSGSTNTSYSKSTPRTNSGYSTGKTTKTASSSRNYSNTSSTRSTTKPSKSSYSKRSTKSTKSLNYSSSSLGSKSIEKSRRSSRKSGSRQDSVASRRQLRSVSSKPQKKYVATDMPSTVSTGRSRGRSVYRRNNVNADVSQRQSRSMSVSRGRSRNRSQNRERSPSIEKSTRSQHVSRKDAFNSHDVLSPTNRSGSVHRSHSAHHERTFEERHKTPNGVWNEMFPKGTLVMYTDGSYLKRPPTSGIGIFVGPGHELNRSQRIRGPIQDNNYAEFIAVRTALQNALKNENYRDQKVVIRTDCLNVIEALQGTRPTAFVDVKSQVEFLSKQFPKGVHFQHVYAHAGDPGNEMADLFAGQASSKSQNSFGGGQRTRSASTARGRSRERNRLRSKSNDPSFIRSRSHSIHSRK”, which “soluble on expression in E. coli” value is on record?
**A.** not soluble

**Q.** For “ASIFGVFDIKTDAVELRKKALELSRLMRHRGPDWSGIYASDNAILAHERLSIVDVNAGAQPLYNQQKTHVLAVNGEIYNHQALRAEYGDRYQFQTGSDCEVILALYQEKGPEFLDDLQGMFAFALYDSEKDAYLIGRDHLGIIPLYMGYDEHGQLYVASEMKALVPVCRTIKEFPAGSYLWSQDGEIRSYYHRDWFDYDAVKDNVTDKNELRQALEDSVKSHLMSDVPYGVLLSGGLDSSIISAITKKYAARRVEDQERSEAWWPQLHSFAVGLPGSPDLKAAQEVANHLGTVHHEIHFTVQEGLDAIRDVIYHIETYDVTTIRASTPMYLMSRKIKAMGIKMVLSGEGSDEVFGGYLYFHKAPNAKELHEETVRKLLALHMYDCARANKAMSAWGVEARVPFLDKKFLDVAMRINPQDKMCGNGKMEKHILRECFEAYLPASVAWRQKEQFSDGVGYSWIDTLKEVAAQQVSDQQLETARFRFPYNTPTSKEAYLYREIFEELFPLPSAAECVPGGPSVACSSAKAIEWDEAFKKMDDPSGRAVGVHQSAYK”, which “soluble on expression in E. coli” value is on record?
**A.** soluble

**Q.** Which “soluble on expression in E. coli” value does the source give for “GDAAKGEKEFNKCKTCHSIIAPDGTEIVKGAKTGPNLYGVVGRTAGTYPEFKYKDSIVALGASGFAWTEEDIATYVKDPGAFLKEKLDDKKAKTEMAFKLAKGGEDVAAYLASVVK” here?
**A.** soluble

**Q.** Which “soluble on expression in E. coli” value does the source give for “MTTANTPVRPKSAIDAVADAYTEKLIELNPSFATTLGLPGHETEYQDYSPAGAAAHAEATRLALEALAGLEPSDDVDAVTLDAMRERLGLELEIHQSGWDAADLNNIASPAQDIRAIFDLMPTDTVEHWEHIAGRAANVPGAIEGYIASLRAAKDDRKVAAARQIRIVIEQTGRYAAEDGFFAKMAADASLGDAPLPAEVQDKLDAGTSAARSAYSALGAFLRDELLPVAPEKDAVGRERYSLASRSFIGAEVDLEETYAWGVQELERLISEQEKVAGQIKPGASIEEAKSILNNDPARQIKGTDALKAWMQELSDRAVSELADVHFDIPDVMKTLECMIAPTDEGGIYYTGPSDDFSRPGRMWWSVPAGEDTFTTWSETTTVFHEGVPGHHLQVATATYRRELLNNWRRNVCWVSGHGEGWALYAEQLMLELGYLKDPGDHMGMLDGQRMRAARVVFDIGVHLELPVPERWGTGTWTPEKGFDFLKANLDISEGQLQFEFTRYLGWPGQAPSYKVGQRLWEQIRAELESREGFDLKSFHSKALNIGSVGLDVLRRALL” here?
**A.** soluble

**Q.** Which “soluble on expression in E. coli” value does the source give for “MRLSMENIMNNPVIGVVMCRNRLKGHATQTLQEKYLNAIIHAGGLPIALPHALAEPSLLEQLLPKLDGIYLPSSPSNVQPHLYGENGDEPDADPGRDLLSMAIINAALERRIPIFAICRGLQELVVATGGSLHRKLCEQPELLEHREDPELPVEQQYAPSHEVQVEEGGLLSALLPECSNFWVNSLHGQGAKVVSPRLRVEARSPDGLVEAVSVINHPFALGVQWHPEWNSSEYALSRILFEGFITAWQHHIAEKQRL” here?
**A.** not soluble

**Q.** For “MATTKLSATKSTSRAINYAEKRAVEKSGLNCDVDYAKSSFKAARELYGKTDGNQGHVIIQSFQPGEVTPEQCNQLGLALAEKLVPNHQVAVYTHADTNHVHNHIVLNSIDLNTGKKFNNNKQALRDVRAFNDEVCRAQGLSVPEKDTARLRYTQTEKAIADPNTTSTAQYSWKDDIREAIDQSTATNMEEFQKHLNQHGITIERVTPKSITYRHLAENKKVRGRKLGEDYNKGGIQHGFERQIQRRQQQKHKSDTNFQPKRSTSNRHESTERDTGVTQSDWDQFAQDTNELERRRQAAESARLVDEKARRDREKRVREKPTSRPIINIDRDHGLEL”, which “soluble on expression in E. coli” value is on record?
**A.** not soluble

**Q.** With “GTKASKSGVPVTQTQTAGADTTAEKCKGKGEKDCKSPDCKWEGGTCKD” as the sequence, how does the “soluble on expression in E. coli” value read?
**A.** soluble

**Q.** With “MSKSIYEQYLQAKADNPGKYARDLATLMGISEAELTHSRVSHDAKRLKGDARALLAALEAVGEVKAITRNTYAVHEQMGRYENQHLNGHAGLILNPRNLDLRLFLNQWASAFTLTEETRHGVRHSIQFFDHQGDALHKVYVTEQTDMPAWEALLAQFITTENPELQLEPLSAPEVTEPTATDEAVDAEWRAMTDVHQFFQLLKRNNLTRQQAFRAVGNDLAYQVDNSSLTQLLNIAQQEQNEIMIFVGNRGCVQIFTGMIEKVTPHQDWINVFNQRFTLHLIETTIAESWITRKPTKDGFVTSLELFAADGTQIAQLYGQRTEGQPEQTQWRDQIARLNNKDIAA” as the sequence, how does the “soluble on expression in E. coli” value read?
**A.** soluble

**Q.** With “MPSDIPKTRLETEGTTQHTSPLRATCHRVFSLNAGRKAGEQYHLFCTSKSDNSTCLDGPARVVLRDILDNLYNRISSMPRANEIKKGMVLNYNGKLLIVKDIDIQSPTARGAATLYKMRFSDVRTGLKVEERFKGDDIVDTVTLSRRGVDFSYVDGNEYVFMDKEDYTPYTFTKDQIEEELLFMPEGGMPDMQVLTWDGQLLALELPQTVDLEIVETAPGIKGASASARNKPATLSTGLVIQVPEYLSAGEKIRIHIEERRYMGRAD” as the sequence, how does the “soluble on expression in E. coli” value read?
**A.** not soluble

**Q.** Which “soluble on expression in E. coli” value does the source give for “MDYDVIANQPVVIDNGSGVIKAGFAGEQQPKVRFANFVGRPKYHRVMAGGLDGDIFIGPKAESNRGLFSIEYPMEHGIVNNWSDMEKIWEYIFGQDQLKIFPEEHPVLLTDAPLNPLKNRERSAEIFFETFNVPALYIQMQAVLSLYATGRTTGVVLDSGDGVTHAVPIVKGFAMKHAIQRMDLAGRDVTEYLRVLLRREGYEFHRSNEFEIVREMKENACYLALDPTKVENNSVKSSYALPDTTKIEISNSLFRAPEVLFKPDLIGTEWPGMAHVVNQSIMKCDVDLRQTLYSNIVLSGGTTLFKGFGDRLLGEMRKIAPADGKIRISASQERNSLTWIGGSIVASLDTFRKMWLGKKEYEDMGASAMHKRFF” here?
**A.** not soluble

**Q.** For “MIEGKTLVVNPFIGGSAKNITDEQYISILKKIKEKMPDLNIIITSYTTDEERTEKLCKDIGKDKIFAFSNGASILNTASIIDRADVYFGASTGPTHIAGALGKKIVAIYPHKKTQSPTRWGVLGNSNVRYIIPDENNPNEDYKNPYLEHHHHHH”, which “soluble on expression in E. coli” value is on record?
**A.** not soluble

**Q.** Which “soluble on expression in E. coli” value does the source give for “MCIIKPMDDVVKFIHEVGSLKLTPRSGWLKLGIRLPESVAEHSFRAAIIAFILALKSGESVEKACKAATAALFHDLHEARTMDLHKIARRYVSCDEEGAREEQLSWMESKPDFSDVEVYVSDADKLELAFQGVEYSQQVSYAIRFAENVELKTDAAKEIYRVLMERKNPVWWR” here?
**A.** soluble

**Q.** For “CSSPKPDAEEQGVPVSPTASDPALLAEIRQSLDATKGLTSVHVAVRTTGKVDSLLGITSADVDVRANPLAAKGVCTYNDEQGVPFRVQGDNISVKLFDDWSNLGSISELSTSRVLDPAAGVTQLLSGVTNLQAQGTEVIDGISTTKITGTIPASSVKMLDPGAKSARPATVWIAQDGSHHLVRASIDLGSGSIQLTQSKWNEPVNVD”, which “soluble on expression in E. coli” value is on record?
**A.** soluble

**Q.** For “MSSYDIAIIGGGISGVGIAQYAAAAGYSTLLIEKGEIGGQTSANSSKLIHGGLRYLESGQINLVRKSLLERRNLLDLAPSLVKPVAFYIPVYQDSRRNPLTIRAGLSLYALLSEFDPLGRFVSIPAVHWHRFKGLKLSGLKAVFQYWDAQTDDKLLTQAVARSAQALGAHIYAEAEFLQLNHLKEQIELSFRHRGEVQQIETKLVINAAGPWVNEVLAHVEPPLAGVEIDWVQGAHLLLDLPAPEGILYLESCFDKRVIFVMPWYGQMLIGTTETVLTSIDTPPQVTESETQYLLGIYCHYFPLSPSIEELKTKIVQTYCGVRVLPKQASSAFERPRDTLMQTSISHPRLLCLYGGKLTTFRSSSAEVLEWIEQKLGKRQPIADIDTLKLTLEHHHHHH”, which “soluble on expression in E. coli” value is on record?
**A.** not soluble

**Q.** For “MGSDKIHHHHHHMRAFVFPGQGSQYSGMAKDFSVYESSKEIFERSKKVLGFDITEIMNGDEETLKLTENAQPSIYITSYIAFLELEKRGILPDVVAGHSLGEYTALAVAGVYDFETGLYLVRKRGEYMSKALEPGKGTMAAVIGLNIETIEEVVNSIEGVYIANYNSHDQVVISGLKESVEKAMEILKEKGARRVVELMVSSPFHTPFLEYAREKMKEEVEKVDFKKPRWPIVMNSTAKPTENPEEIKRNIIEQITGPVLWKQSVDTMKKMGVTEFVEVGPKTVLKNLCRRMGANAKHFTEILSE”, which “soluble on expression in E. coli” value is on record?
**A.** not soluble

**Q.** With “MREKELKHIENLLLLKVKKEKIEETDKIKEYLKRFEDERRFDGIKESTIKSDLDRLRVFLDYCINYLGKNPEELKTSDFVKFFNYLDTVRKVSKSSQRKYFLLLKVFYRVLRMYNVIQEFVEESKDRKRFARIEIQHYDAVDAEMLNMILKKIIESGSRTRIRDALIIRLLWDTGCRVSEVLNLKYKDCDLDNGIFKIRNTKTHEERTVVCSSDTLELLRNYVQFNVRQGSDDYLFQNSQGGRVRKEWISEVFRKAVNELKEEGKIPKNRRIVIHSIRHGRAVDLLNKGVPIDIVKEYLGHKSMNTTLIYAHSKERAESLEFIKKLLRIQ” as the sequence, how does the “soluble on expression in E. coli” value read?
**A.** not soluble

**Q.** Which “soluble on expression in E. coli” value does the source give for “MGSDKIHHHHHHMLKCSICINDERITRILIVDGRPICKECKVFLEHPPDKEKIKKELEEILSKVDKAIVAYSGGKDSIVALYLAKEKYSIDVEAVMVDHGFIAPQAIKNAKNVAKYLDVPLTIIKRDYSDIFREALLKAKSPCRKCSRRTMEILRKYALKKGYRYMITGHELPFGHHPYRLMSGGIIQVRILSLMSEEERMKILKKLPVELPELPGYTSNCLILGPALQRFWERHGYSFEHRRIAALVRYGLLNKEKALKKVQKPEVPQWQWELVKKKLKLEDGF” here?
**A.** not soluble

**Q.** For “MNWAKFRETGSPEDTDMSSTPISSDTTAVSKVIDPNYVLMVADFFKAISPDESCNDFTSFDSFSVLFQNNTRALSIARGRVSCSVTVTPGISNFFKGLHGGAVASIAERVAMACVKTVVSEDKHLFIGELSMSYLSSAPISSELLVEGTVVRTGRNLSVVTVEFKIKETMKVTYLSRATFYHSPISKL”, which “soluble on expression in E. coli” value is on record?
**A.** not soluble

**Q.** For “MDDIIQQLFKEVERPQLTVNEQALQQYLYREIVRLTLLVEPTISKPQIIGLLSALVKKARHYVNADNQAECIQQLLDLVYQEWRFHCDYQEYFYTDNLLLHRVIRSHRGMPLSIGAIVLYLAAKLQLPIYPVNFPTQLILRAEITESSGKKTVRFINPWDGQFLPLELLLKWLEGEVGYGVELSPELLRRADPAELLERVETVFKMVLTREGKYEQTLRLIEYRLAENPDDPYEIRDRGMVLASMDCYQAAYDDLSYFIDQCPDDPSAAILKSEVKGLEQKSKQNQVHLEHHHHHH”, which “soluble on expression in E. coli” value is on record?
**A.** soluble
